Where two headings read alike, the source gives them in different places.
Assays:
Test in all cases: cell-based or functional assay
[1] = biological target: adenylyl cyclase (AC) in rat spinal cord lysates/membranes (rat)
[2] = biological target: adenylyl cyclase (AC) in rat dorsal root ganglia (DRG) lysates (rat)
[3] = biological target: adenylyl cyclase (AC) in rat spinal cord lysates/membranes (rat); remark: listed apart in the source

Substance: PAM (Protein Associated with Myc), full length, purified from HeLa cells (from UniProt O75592 1-4678)
- inhibition of Gαs-stimulated AC activity, spinal cord lysates of animals treated for 1 hour with formalin, 30 nM PAM [1]: 25%
- inhibition of Gαs-stimulated AC activity, spinal cord lysates of control animals, 30 nM PAM [1]: 49%
- inhibition of Gαs-stimulated AC activity, spinal cord lysates of rats 96 hours after zymosan injection, 30 nM PAM [1]: 70%
- inhibition of Gαs-stimulated AC activity, spinal cord preparations of zymosan-treated animals [1]: 75%
- inhibition of Gαs-stimulated AC activity, DRG lysates, 30 nM PAM [2]: 32%
- inhibition of Gαs-stimulated AC activity, spinal cord lysates of control animals, 30 nM PAM [3]: 50%
